# T1: T7-tagged AtBG1 (Arabidopsis thaliana β-glucosidase 1) (Arabidopsis thaliana, UniProt Q9SE50 27-528)
# T1 construct: Co-expressed with AtBG1:HA in protoplasts; pulled down with anti-T7 antibody; also called AtBG1:T7; not shown: T7 tag
# T1 sequence (looked up): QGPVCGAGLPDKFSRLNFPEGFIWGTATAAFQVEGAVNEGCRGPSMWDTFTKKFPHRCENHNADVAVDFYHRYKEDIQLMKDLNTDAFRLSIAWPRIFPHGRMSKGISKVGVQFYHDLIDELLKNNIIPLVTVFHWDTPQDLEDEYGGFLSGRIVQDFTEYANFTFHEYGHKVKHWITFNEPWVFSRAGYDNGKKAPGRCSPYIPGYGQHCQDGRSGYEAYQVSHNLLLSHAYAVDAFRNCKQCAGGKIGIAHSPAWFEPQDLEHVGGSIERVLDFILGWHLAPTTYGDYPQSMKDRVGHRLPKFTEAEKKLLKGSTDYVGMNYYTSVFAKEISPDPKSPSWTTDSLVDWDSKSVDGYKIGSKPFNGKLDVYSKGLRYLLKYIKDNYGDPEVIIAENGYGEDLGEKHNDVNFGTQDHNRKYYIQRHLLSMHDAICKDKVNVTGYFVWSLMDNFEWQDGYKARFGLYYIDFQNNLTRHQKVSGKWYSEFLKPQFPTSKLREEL
# B1: HA-tagged AtBG1 (Arabidopsis thaliana β-glucosidase 1) (enzyme, UniProt Q9SE50 27-528, looked up)
# chain: QGPVCGAGLPDKFSRLNFPEGFIWGTATAAFQVEGAVNEGCRGPSMWDTFTKKFPHRCENHNADVAVDFYHRYKEDIQLMKDLNTDAFRLSIAWPRIFPHGRMSKGISKVGVQFYHDLIDELLKNNIIPLVTVFHWDTPQDLEDEYGGFLSGRIVQDFTEYANFTFHEYGHKVKHWITFNEPWVFSRAGYDNGKKAPGRCSPYIPGYGQHCQDGRSGYEAYQVSHNLLLSHAYAVDAFRNCKQCAGGKIGIAHSPAWFEPQDLEHVGGSIERVLDFILGWHLAPTTYGDYPQSMKDRVGHRLPKFTEAEKKLLKGSTDYVGMNYYTSVFAKEISPDPKSPSWTTDSLVDWDSKSVDGYKIGSKPFNGKLDVYSKGLRYLLKYIKDNYGDPEVIIAENGYGEDLGEKHNDVNFGTQDHNRKYYIQRHLLSMHDAICKDKVNVTGYFVWSLMDNFEWQDGYKARFGLYYIDFQNNLTRHQKVSGKWYSEFLKPQFPTSKLREEL
# notes: Expressed in Arabidopsis protoplasts or in 'rescued atbg1' plants and tested in protein extracts; also called AtBG1:HA; AtBG1::HA; not shown: virus HA (hemagglutinin) tag
# Tests used:
# [1] = target: T1, T7-tagged AtBG1 (Arabidopsis thaliana …); assay: co-immunoprecipitation with anti-T7 antibody, anti-HA Western blot, densitometry
# Description: The present inventors also investigated the mechanism by which dehydration stress activates AtBG1. […] Thus, the present inventors investigated whether the mechanism by which dehydration stress activates AtBG1 is attributed to AtBG1 polymerization. Protein extracts were prepared from protoplasts co-transformed with two differently tagged forms of AtBG1, AtBG1:HA and AtBG1:T7, according to the same method as described in the above Example, and used for co-immunoprecipitation with anti-T7 antibody. Immunoprecipitates were analyzed by Western blotting using anti-HA antibody to investigate the interaction between AtBG1 molecules. As a result, HA-tagged AtBG1 was detected in the precipitate immunoprecipitated with T7-antibody (FIG. 35). Furthermore, the amount of HA-tagged AtBG1 in the precipitate was increased by approximately 3-fold upon treatment of protoplasts with 10% PEG 8000, a chemical that induces dehydration stress, for 12 hours (measured by densitometery software, FIG. 35). Therefore, the present inventors concluded that AtBG1 undergoes homomeric interactions, which are enhanced under conditions of dehydration stress.
binder,measurement,setting,value
B1,fold increase of the co-precipitated amount upon 10% PEG 8000 (12 hours) against untreated protoplasts,[1],~3 fold
same,ABA-GE hydrolyzing activity (ABA content by ELISA) of high against low molecular weight forms of AtBG1 after gel filtration and anti-HA immunoprecipitation,Q9SE50,High molecular weight forms exhibited 4-fold higher AtBG1 activity

# — patent US20090138983A1 (POSTECH FOUNDATION, published 2009)
